Experimental data reported in US20210371505A1 (Regeneron, published 2021).

Biological target: Hemagglutinin of A/Wisconsin/67/2005 (H3N2) overexpressed on 3T3 cells (Influenza A virus A/Wisconsin/67/2005 …)
Test: cell-based or functional assay

B1: H1H14611N2 (antibody, V domains shown)
VH: EVQLVESGGGLVKPGGSLRLSCAASGFTFSGFSMNWVRQVPGKGLEWVSSISTSGNYMYYADSVKGRFTISRDNAKKSFSLQMNSLRAEDSAIYYCARGGGYNWNLFDYWGQGSLVTVSS
VL: EIVLTQSPGTLSLSPGERATLSCRASQSLNSNYLAWYQQKPGQAPRLLIYGASSRATGIPDRFSGSGSGTDFTLTITRLESEDFAVYYCQQYGNSPLTFGGGTKVEIK
  EC50, ADCC with human donor PBMCs (CytoTox-Glo): 146 pM
  EC50, FcγRIIIA activation in the ADCC-Glo reporter bioassay (Promega): 871 pM
